Laboratory results as given in the RNAGym collection of RNA variant scans (doi:10.1073/pnas.2313332121).

B1: TPR t1 (parent)
chain: GACCAAUCUGCCCUCAGAGCUCGAGAACAUCUUCGGAUGCAGAGGAGGCAGGCUUCGGUGGCGCGAUAGCGCCAACGUCCUCAACCUCCAAUGCAUCCCACCACAUGAUGAUGCCUGAAGAGCCUUGGUUUUUUG

Variants of: B1
Experiment: polymerase ribozyme fitness, log enrichment relative to wild type (log ratio); higher = more active; in vitro selection for triplet polymerase activity
How it was run: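 Each subunit of a heterodimeric triplet polymerase ribozyme was mutagenized into a library by PCR, transcribed, and subjected to one round of in vitro selection, run in triplicate. Libraries were annealed with a biotinylated primer, the partner subunit and triplets, incubated frozen at −7 °C, and extended constructs were gel-excised, captured on streptavidin beads and recovered by RT-PCR. Input and output libraries were sequenced on Illumina, keeping genotypes with ≥10 input reads and ≥1 read per output. Fitness is log base 2 of genotype enrichment divided by wild-type enrichment, from inverse-variance-weighted replicate averages.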

| Variant | polymerase ribozyme fitness (log ratio) |
| --- | --- |
| GACCAAUCUGCCCUCAGAGCUCGAGAACAUCUUCGGAUGGAGAGGAGGCAGGCUUCUGUGGCCCGAUAGCGCCAACGUCCUCAACCUCCACUGCAUCCCACCACAUGAUGAUGCCUGAAGAGCCUUGGUUUUUUG [C40G G57U G63C A91C] | -3.66 |
| GACCAAUCUGCCCUCAGAGCUCGAGAACAUCUUCGGAUGGAGAGGAGGCAGGCUUCGGUGGCGCGAUAGCGUCAACGUCCUCAACCUCCAAUGCAUCCCACCACAUGAUGAUGCCUGAAGAGCCUUCGUUUUUUG [C40G C72U G127C] | -2.34 |
| GACCAAUCUGCCCUCAGAGCUCGAGAACAUCUUCGGAUGGAGAGGAGGCAGGCUUCGGUGGCGCGAUAGCGGCAACGUCCUCAACCUCCAAUGCAUCCCACCACAUGAUGAUGCGUGAAGAGGCUUGCUUUUUUG [C40G C72G C115G C123G G128C] | -4.8 |
| GACCAAUCUGCCCUCAGAGCUCGAGAACAUCUUCGGAUGGAGAGGAGGCAGGCUUCGGUGGCGCGAUAGCGCCAACGUCCUCAACCUCCAAUGCAUCCCACCACAUGAUGAUGUCUGAAGAGCCUUGGUUUUUUG [C40G C114U] | -2.54 |
| GACCAAUCUGCCCUCAGAGCUCGAGAACAUCUUCGGAUGGAGAGGAGGCAGGCUUCGGUGGCGCGAUAGCGCCAACGUCCUCAAACUCCAAUGCAUCCCACCACAUGAUGAUGCCUGAAGAGCCUUGGUUUUUUG [C40G C85A] | -2.32 |
| GACCAAUCUGCCCUCAGAGCUCGAGAACAUCUUCGGAUGGAGAGGAGGCAGGCUUCGGUGGCGCGAUAGCGCCAACGUCCUCAACCUCCAAUGCAUCCCACCAAAUGAUGAUGCCUGAAGAGCGUUGGUUUUUUG [C40G C104A C124G] | 0.0636 |
| GACCAAUCUGCCCUCAGAGCUCGAGAACAUCUUCGGAUGGAAAGGAGGCAGGCUUCGGAGGCGCGAUAGCGCCAACGUCCUCAACCUCCAAUGCGUCCCACCACAUGAUGAUGCCUGAAGAGGCUUGGUUUUUUG [C40G G42A U59A A95G C123G] | -2.1 |
| GACCAAUCUGCCCUCAGAGCUCGAGAACAUCUUCGGAUGGAGAGGAGGCAGGCUUCGGUGGCGCGAUAGCGGCAACGUCCUUAACCUCCAAUGCAUCCCACCACAAGAUGAUGCCUGAAGAGCCUUGGUUUUUUG [C40G C72G C82U U106A] | -2.01 |
| GACCAAUCUGCCCUCAGAGCUCGAGAACAUCUUCGGAUGGAGAGGAGUCAGGCUUCGGUGGCGCGAUAGCGCCAACGUCCUCAACCUCCAAAGCAUCCCACCACAUGAUGAUGCCUGAAGAGCCUUGGUUUUUUG [C40G G48U U92A] | -4.05 |
| GACCAAUCUGCCCUCAGAGCUCGAGAACAUCUUCGGAUGGAGAGGAGGCAGGCUUCAGUGUCGCGAUAGCGCCAACGUCCUCAACCUCCAAUGCAUCCCACCACAUGAUGAUACCUGAAGGACCUUGGUUUUUUG [C40G G57A G61U G113A A121G G122A] | -2.96 |
| GACCAAUCUGCCCUCAGAGCUCGAGAACAUCUUCGGAUGGAGAGAAGGCAGGCUUCGGUGGCGCGAUAGCGCCAACGUCCUCAACCUCCAAUGCAUCCCACCACAUGAUGAUGCCUGAAGAGCCUUGGUUUUUUG [C40G G45A] | -2.11 |
| GACCAAUCUGCCCUCAGAGCUCGAGAACAUCUUCGGAUGGAGAGGAGUCAGGCUUCGGUGGCGCGAUAGCGCCAACGUCCUCAACCUCCAAUGCAUCCCACCACUUGAUGAUGCCUGAAGAGCCUUGGUUUUUUG [C40G G48U A105U] | -3.14 |
| GACCAAUCUGCCCUCAGAGCUCGAGAACAUCUUCGGAUGGAGAGGAGGCAGGCUUCGGUGGCGCGAUAGCGCCAACGUUCUCAACCUCCAAUGCAUCCCACCACAUGAUGAUGCCUGAAGAGCCUUGGUUUUUUG [C40G C79U] | -1.27 |
| GACCAAUCUGCCCUCAGAGCUCGAGAACAUCUUCGGAUGGAGAGGAGGCAGGCUUCGGUGGCGCGAUAGCGCCAACGUACUCAACCUCCAAUGCAUCCCACCACAUGAUGAUGCCUGAAGAGCCUUGGUUUUUUG [C40G C79A] | -2.58 |
| GACCAAUCUGCCCUCAGAGCUCGAGAACAUCUUCGGAUGGAGAGGAGGCAGGCUUCGGUGGCGCGAUAGCGCCAACGUCCUCAACCUCCAAUGCAUCCCACCAAAUGAUGAUGCCUGAAGAGCCUUGGUUUUUUG [C40G C104A] | -2.31 |
| GACCAAUCUGCCCUCAGAGCUCGAGAACAUCUUCGGAUGGAGAGGAGGCAGGCUUCGGUGCCGCGAUAGCGCCAACGUCCUCAACCUCCAAUGCAUCCCACCACAUGAUGAUGCCUGAAGAGCCUUGGUUUUUUG [C40G G61C] | -2.49 |
| GACCAAUCUGCCCUCAGAGCUCGAGAACAUCUUCGGAUGGAGAGUAGGCAGGCUUCGGUGGCGCGAUAGCGCCAACGUCCUCAACCUCCUAUUCAUCCCACCACAUGAUGAUGCCUGAAGAGCCUUGGUUUUUUG [C40G G45U A90U G93U] | -4.32 |
| GACCAAUCUGCCCUCAGAGCUCGAGAACAUCUUCGGAUGGAGAGGAGGCAGACUUCGGUGGCGCGAUAGCGCCAACGUCCUCAACCUCCAAUGCAUCCCACCACAUGAUGAUGCCUAAAGAGCCUUGGUUUUUUG [C40G G52A G117A] | -2.65 |
| GACCAAUCUGCCCUCAGAGCUCGAGAACAUCUUCGGAUGGAGAGGAGGCAGGCUUCGGUGGCGCGAUAGCGCCAACGUCCUCAACCUCCAAUGCAUCCCACAACAUGAUGAUGCCUGUAGAGCCUUGGUUUUUUG [C40G C102A A118U] | -2.92 |
| GACCAAUCUGCCCUCAGAGCUCGAGAACAUCUUCGGAUGGAGAGGAGGCAGGCUUCGAUGGCGCGAUAGCGCCAACGUCCUCAACCUCCAAUGCAUCCCACCACAUUAUGAAGCCUGAAGAUCCUUGGUUUUUUG [C40G G58A G107U U112A G122U] | -5.89 |
| GACCAAUCUGCCCUCAGAGCUCGAGAACAUCUUCGGAUGGAGAGGAGGCAGGCUUCGGUGGCGCGAUAGCGUCAACGCCCUCAACCUCCAAUGCAUCCCACCACAUGAUGAUGCCUGAAGAGCCUUGGUUUUUUG [C40G C72U U78C] | -1.15 |
